Data: patent publication US8404239B2, “Anti-Notch2 NRR antibodies” (Genentech, Inc., priority 2008, dated 2013)
Values joined by “and” are separate entries in the source; they are usually repeats but may differ in a detail not shown here. Equal values may be shown once.

Experiments:
[1] = tested on: Notch2 NRR; assay: ELISA binding to purified Notch2 NRR proteins; details: purified human or mouse protein, up to highest antibody concentration tested
Text: (§1) The N-myc-Notch transgenes were expressed under control of the inducible tet promoter; bottom row, control expression in the absence of induction with doxycycline (−Dox); top row, induced expression following addition of doxycycline (+Dox); note that the K1-CHO line endogenously expresses Notch2, which is detected by anti-NRR2 in the presence and absence of doxycycline (for example, compare panels 7 and 10).
Anti-Flag antibody was used to capture Flag-Tagged NRR protein from all four Notch receptors in a black walled, high binding plate (Greiner). NRR antibody and E25 control antibodies were bound to the NRR proteins and washed away with PBS. An Alkaline Phosphate conjugated anti-human (H+L) secondary antibody (Jackson ImmunoResearch) was used to detect bound anti-NRR and E25. Unbound secondary was washed away and AP was detected with PNPP substrate (Pierce).

[2] = biological target: T1, myc-Notch2 on K1-CHO cells (Homo sapiens, UniProt Q04721); assay: FACS binding to K1-CHO cells expressing N-myc-Notch2; format: cell-based; details: doxycycline induced
T1 construct: either the Notch1 or Notch2 extracellular domain and trans-membrane domains were N-terminally myc-tagged; expressed in transfected cells; host or cells: CHO-K1 (Tet-inducible, doxycycline)
Text: as §1
Expression plasmids were made in which either the Notch1 or Notch2 extracellular domain and trans-membrane domains were N-terminally myc-tagged and expressed under the control of a Tetracycline Response Element (TRE) upstream of a minimal CMV immediate early promoter. These plasmids were stably transfected into CHO-K1 cells (Clonetech), engineered to express a transactivator protein in the presence of Doxycycline that binds to and activates the TRE in the transfected plasmid. Cells were treated with […] doxycycline or vehicle for 48 hrs, and then stained with anti-NRR, anti-myc (9E10, Millipore) or E25 control antibodies and either goat anti-human Alexa 488 or Alexa 647 secondary antibodies (Invitrogen). After staining, cells were run on a FACScalibur machine (BD Biosciences) and 15000 events were collected and range gates were drawn to assess positively and negatively stained populations.

[3] = tested on: thymus, CD4+/CD8+ double-positive T cells; assay: In vivo thymus / T cell development in Balb/c mice; design: species or system mouse; details: 5 mg/kg four times every four days
Description: (§2) Balb/c mice were injected four times every four days with 5 mg/kg of α-gD isotype control, α-NRR1 or α-NRR2, and cells were harvested from the thymus or spleen on day 13, one day after the fourth dose. (A) Thymus weight measurements. Thymus weights (in mg) are expressed relative to total body weight (in g). Values represent the mean plus standard deviation for three mice per group. (B) Thymus cell count. (C) CD4 and CD8 FACS to identify CD4^+/CD8^+ double-positive T cells. Numbers represent the percentage of thymic cells in the double-negative, single-positive and double-positive populations. […] (D) CD21 and CD23 FACS to identify marginal zone B cells. Numbers represent the mean percentages ±standard deviation (from three animals) of cells within the MZB gate, which is boxed; p values are also noted; representative dot plots from one of the three animals in each group are graphed.
(§3) Splenocytes were isolated from the mice and were stained for FACS with B220-PerCP, CD23-PE and CD21-FITC (BD Biosciences) as previously described (Saito, et al., Immunity, Vol. 18, 675-685, May 2003).

[4] = tested on: splenic marginal zone B (MZB) cells; assay: Marginal zone B cell analysis in Balb/c mice; format: in vivo, mouse; details: 5 mg/kg, spleen, CD21/CD23 FACS, three animals
Description: as §2, §3

[5] = tested on: intestinal cell differentiation; assay: Histology and immunohistochemistry of mouse intestine tissue; format: in vivo; details: 5 mg/kg, one day after final dosing (FIGS. 15C and 24B)
Text: (A) Total body weight change (mean+/−standard deviation) vs. time. […] Arrows mark the days of dosing. (B) Immunohistochemical analyses of small intestines. […] In each row as indicated, staining is shown for haemotoxylin and eosin (H & E), Alcian Blue for mucin and to mark secretory goblet cells, lysozyme to mark Paneth cells, Ki-67 for proliferation and Hes1 as a Notch downstream target. See FIGS. 19 and 20 for analyses of the large intestine at day 7 and of the small intestine at day 2, respectively. Bar=40 μm. (C) Comparison of Notch1- versus Notch2-specific inhibition on small intestinal cell differentiation. Small intestines from the study described in (A) were prepared for Alcian Blue and Ki-67 one day after the final dosing with α-gD, α-NRR1 or α-NRR2, as indicated. Bar=50 μm.
Formalin-fixed and paraffin-embedded mouse small intestine tissues were sectioned at 3 micron thickness. Histochemical identification of intestinal cell types was performed with Alcian blue as recommended by the manufacturer (PolyScientific). For anti-Ki67 staining, sections were pretreated with Target Retrieval Solution (S1700, DAKO), and incubated with rabbit anti-Ki67 (1:200, clone SP6, Neomarkers). Secondary goat anti-rabbit at 7.5 μg/ml (Vector labs) was detected with the Vectastain ABC Elite Kit (Vector labs). Ki67 stained sections were counterstained with Mayer's haemotoxylin. For anti-lysozyme staining, sections were processed on the Discovery XT platform (Ventana Medical Systems, Inc.) using CC1m epitope recovery conditions, OmniMap-rabbit detection and Ventana haemotoxylin II/with bluing counterstain. For HES-1 staining, anti-rat HES-1 (clone NM1, MBL, International) was followed by TSA-HRP.
The effect of inhibiting both Notch1 and Notch2 on intestinal cell fate determination was also investigated. […] The intestines were harvested and stained with H&E to reveal the crypt morphology. […] Further experimentation confirmed this observation.

[6] = tested on: SK23 melanoma cells; assay: Cell Titer Glo viability of melanoma cell line SK23; format: cell-based, human; details: six days, antibodies 20 mg/ml, DAPT 5 μM, ± Jagged-1
Description: (§4) Human melanoma cell lines SK23 and LOX-IMVI were plated in medium containing 2% FBS at low density (4000 cells/well for SK23, 2500 cells/well for LOX-IMVI) in 96 well plates that were coated without (−jag-1) or with Jagged-1 ligand (+jag-1) (R&D Systems, Minneapolis, Minn.). […] An equal volume of DMSO served as the vehicle control, whereas an equal concentration of anti-gD HuB6 phage antibody served as the isotype control antibody. Cell Titer Glo assays (Promega, Madison, Wis.) were performed six days after plating. […] In FIGS. 25A and 25B, cell viability (y-axis) is expressed relative to the values from the DMSO vehicle, −jag-1 control wells.

[7] = tested on: LOX-IMVI melanoma cells; assay: Cell Titer Glo viability of melanoma cell line LOX-IMVI; format: cell-based, human; details: six days, antibodies 20 mg/ml, DAPT 5 μM, ± Jagged-1
Description: as §4

T1 sequence (Q04721 26-1677 limits assumed): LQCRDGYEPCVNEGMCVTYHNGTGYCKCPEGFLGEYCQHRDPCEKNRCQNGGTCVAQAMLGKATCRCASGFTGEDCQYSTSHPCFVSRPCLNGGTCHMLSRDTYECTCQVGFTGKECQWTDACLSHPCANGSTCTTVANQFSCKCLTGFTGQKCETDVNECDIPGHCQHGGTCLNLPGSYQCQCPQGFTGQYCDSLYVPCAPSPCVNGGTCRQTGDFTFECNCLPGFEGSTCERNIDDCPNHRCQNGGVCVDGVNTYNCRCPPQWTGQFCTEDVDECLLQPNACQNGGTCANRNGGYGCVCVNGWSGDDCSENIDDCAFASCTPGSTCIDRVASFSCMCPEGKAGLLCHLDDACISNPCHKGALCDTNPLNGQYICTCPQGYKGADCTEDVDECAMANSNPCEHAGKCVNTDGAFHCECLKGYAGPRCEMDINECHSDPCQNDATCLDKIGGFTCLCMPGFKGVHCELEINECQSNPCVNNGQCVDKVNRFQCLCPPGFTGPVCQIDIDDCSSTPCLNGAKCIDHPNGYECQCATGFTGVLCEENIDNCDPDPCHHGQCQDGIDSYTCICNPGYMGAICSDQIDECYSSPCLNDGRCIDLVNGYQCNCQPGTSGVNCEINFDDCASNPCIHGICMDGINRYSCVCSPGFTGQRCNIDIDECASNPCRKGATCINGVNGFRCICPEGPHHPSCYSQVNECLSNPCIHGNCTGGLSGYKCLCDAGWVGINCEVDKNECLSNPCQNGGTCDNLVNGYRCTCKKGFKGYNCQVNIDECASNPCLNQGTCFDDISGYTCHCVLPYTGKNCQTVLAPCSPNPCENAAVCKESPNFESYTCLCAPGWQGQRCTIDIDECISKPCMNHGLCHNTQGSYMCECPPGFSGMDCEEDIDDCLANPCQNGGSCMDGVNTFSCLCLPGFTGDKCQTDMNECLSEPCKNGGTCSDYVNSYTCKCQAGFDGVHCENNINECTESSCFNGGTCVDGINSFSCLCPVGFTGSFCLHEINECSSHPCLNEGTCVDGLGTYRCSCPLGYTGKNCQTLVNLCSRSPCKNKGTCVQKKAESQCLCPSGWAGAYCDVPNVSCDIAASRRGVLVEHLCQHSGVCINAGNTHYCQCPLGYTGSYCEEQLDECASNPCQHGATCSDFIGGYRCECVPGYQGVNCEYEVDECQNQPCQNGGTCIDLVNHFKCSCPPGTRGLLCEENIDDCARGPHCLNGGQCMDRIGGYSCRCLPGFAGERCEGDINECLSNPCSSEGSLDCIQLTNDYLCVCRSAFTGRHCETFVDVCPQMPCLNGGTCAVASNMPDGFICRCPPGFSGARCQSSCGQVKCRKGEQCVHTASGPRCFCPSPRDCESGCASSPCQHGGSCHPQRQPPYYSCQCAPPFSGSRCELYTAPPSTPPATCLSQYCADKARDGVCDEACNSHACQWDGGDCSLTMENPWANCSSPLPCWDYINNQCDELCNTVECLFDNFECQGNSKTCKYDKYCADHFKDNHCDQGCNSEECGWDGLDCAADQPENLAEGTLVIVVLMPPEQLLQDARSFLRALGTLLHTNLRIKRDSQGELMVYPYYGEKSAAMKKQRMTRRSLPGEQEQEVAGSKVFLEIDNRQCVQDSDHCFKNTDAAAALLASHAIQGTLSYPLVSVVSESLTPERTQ

B1: anti-NRR2: affinity matured form of Antibody D, phage library-derived human anti-Notch2 NRR monoclonal antibody (antibody, V domains shown)
VH: EVQLVESGGGLVQPGGSLRLSCAASGYTFSSYGMSWVRQAPGKGLEWVSYIYPYSGATYYADSVKGRFTISADTSKNTAYLQMNSLRAEDTAVYYCARHSGYYRISSAMDVWGQGTLVTVSA
VL: DIQMTQSPSSLSASVGDRVTITCRASQNIKRFLAWYQQKPGKAPKLLIYGASTRESGVPSRFSGSGSGTDFTLTISSLQPEDFATYYCQQYYRSPHTFGQGTKVEIKR
binding to Notch2 NRR proteins [1]: bound specifically | binding to myc-Notch2 cells [2]: significantly bound | total number of cells in the thymus ([3]; day 13): not | percentage of thymic cells in the CD4+/CD8+ population ([3]; day 13, FACS): 80% | percentage of cells within the MZB gate (mean ± standard deviation) [4]: 0.97% and 0.97+/−0.45% | effects on small intestine (goblet cells, Alcian Blue) [5]: did not cause any detectable effects | cell viability [6]: decrease in viability | cell viability [7]: decrease in viability
